Assays:
[1] = target: T1, corticotropin-releasing hormone (CRH) peptide (human and mouse, UniProt P01143 145-185 (rat entry), not fully specified); test: cell-based or functional assay
T1 peptide: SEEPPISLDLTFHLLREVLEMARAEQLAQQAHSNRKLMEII

[2] = target: T2, CRH (Central Region, NT Biotin) (N-terminal Biotin-K; C-terminal NH2); test: ELISA, CRH central region peptide (NT biotin)
T2 construct: also called Central CRH
T2 peptide: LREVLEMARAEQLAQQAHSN
Method: (§1) Streptavidin (Thermo, Cat: 21125) was diluted in PBS to a concentration of 2 μg/ml. 100 μl of diluted streptavidin was added per well to ELISA microplates, and the plates were incubated overnight at 4° C. […] Subsequently, plates were washed and incubated with HRP-conjugated goat anti-human IgG (H+L) antibody (Jackson, Cat: 109-035-088) at 37° C. for 1 hour. 100 μL of 3,3′,5,5′-tetramethylbenzidine (TMB) substrate (Biopanda, Cat: TMB-S-003) was added, and the plates were incubated at room temperature for 15 minutes. 100 μL of ELISA stopping solution (Solarbio, Cat #: C1058) was added to terminate the reaction, and the optical density at 450 nm (OD450 nm) was determined by an ELISA plate reader (Molecular Devices, Spectra max 384 plus).

[3] = target: T3, human UCN1 peptide, biotinylated (human, UniProt P55089 83-122, biotin at N- or C-terminus); test: ELISA, hUCN1 (CT biotin)
T3 construct: also called hUCN1 (NT Biotin); hUCN1 (CT Biotin)
T3 peptide (looked up): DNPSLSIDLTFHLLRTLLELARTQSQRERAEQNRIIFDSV
Method: as §1

[4] = target: T4, biotinylated CRH (human and mouse, UniProt P01143 145-185 (rat entry), not fully specified; biotin; which end is not stated for the result (NT-biotin and CT-biotin forms were used)); test: ELISA, CRH (NT biotin)
T4 construct: also called biotin-CRH; CRH (NT biotin)
T4 peptide: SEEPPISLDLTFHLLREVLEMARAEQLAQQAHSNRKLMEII
Method: as §1

[5] = target: T5, human UCN3 peptide, biotinylated (human, UniProt Q969E3 120-157, biotin at N- or C-terminus); test: ELISA, hUCN3 (NT biotin) and (CT biotin)
T5 construct: also called hUCN3 (NT Biotin); hUCN3 (CT Biotin)
T5 peptide (looked up): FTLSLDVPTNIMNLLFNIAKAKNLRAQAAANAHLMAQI
Method: (§2) Streptavidin (Thermo, Cat: 21125) was diluted in PBS with a concentration of 2 μg/mL. 100 μL of diluted streptavidin was added per well to ELISA microplates, and the plates were incubated overnight at 4° C. Plates were blocked with ELISA blocking solution (containing 2% w/v BSA, 0.05% (v/v) Tween-20, pH 7.4 PBS buffer) at 37° C. for 1 hour, and then incubated with either 1 μg/mL hUCN1 (NT Biotin), hUCN1 (CT Biotin), hUCN2 (NT Biotin), hUCN2 (CT Biotin), hUCN3 (NT Biotin), or hUCN3 (CT Biotin) for 1 hour at 37° C. […] Plates were subsequently washed and incubated with HRP-conjugated goat anti-human IgG (H+L) antibody (Jackson, Cat: 109-035-088) at 37° C. for 1 hour. 100 μl of TMB Substrate (Biopanda, Cat: TMB-S-003) was added, and the plates were incubated at room temperature for 15 minutes. 100 μL of ELISA stopping solution (Solarbio, Cat #: C1058) was then added to terminate the reaction, and the OD450 nm was determined by an ELISA plate reader (Molecular Devices, Spectra max 384 plus).

[6] = target: T6, N-Terminal CRH peptide (N-terminal region plus central region, CT biotin) (human and mouse, C-terminal K-Biotin); test: ELISA, N-Ter-CRH (CT-biotin) on streptavidin
T6 construct: also called N-Ter-CRH
T6 peptide: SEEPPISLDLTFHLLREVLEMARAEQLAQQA
Method: as §1

[7] = target: T3, human UCN1 peptide, biotinylated; test: ELISA, hUCN1 (NT biotin)
Method: as §1

[8] = target: T7, human UCN2 peptide, biotinylated (human, UniProt Q96RP3 72-109, limits assumed, biotin at N- or C-terminus); test: ELISA, hUCN2 (NT biotin) and (CT biotin)
T7 construct: also called hUCN2 (NT Biotin); hUCN2 (CT Biotin)
T7 peptide (looked up): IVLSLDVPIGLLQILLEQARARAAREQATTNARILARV
Method: as §2

[9] = target: T8, CRH (C-Terminal Region, NT Biotin) (N-terminal Biotin-K; C-terminal NH2); test: ELISA, CRH C-terminal region peptide (NT biotin)
T8 construct: central region plus C-terminal region of CRH; also called C-Terminal CRH; C-Ter-CRH
T8 peptide: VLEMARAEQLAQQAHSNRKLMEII
Method: as §1

[10] = target: T4, biotinylated CRH; test: ELISA, CRH (CT biotin)
Method: as §1

[11] = target: T9, CRH (Central Region, CT Biotin) (C-terminal K-Biotin); test: ELISA, CRH central region peptide (CT biotin)
T9 construct: also called Central CRH
T9 peptide: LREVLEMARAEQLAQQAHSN
Method: as §1

[12] = target: T4, biotinylated CRH; test: ELISA, CRH (NT biotin)
[13] = target: T1, corticotropin-releasing hormone (CRH) …; test: cell-based or functional assay
[14] = target: T4, biotinylated CRH; test: Octet in-tandem competition on captured CRH; row = 1st mAb; competitor (2nd mAb) PR006669
Method: (§3) SA sensors (Fortebio, Cat #18-5019) were hydrated in running buffer for 10 mins.

[15] = target: T3, human UCN1 peptide, biotinylated; test: ELISA, hUCN1 (NT biotin) and (CT biotin), mAb at 100 and 10 nM
Method: as §2

[16] = target: T1, corticotropin-releasing hormone (CRH) …; test: cell-based or functional assay
[17] = target: T4, biotinylated CRH; test: Octet in-tandem competition on captured CRH; row = 1st mAb; competitor (2nd mAb) PR302341-34
Method: as §3

[18] = target: T4, biotinylated CRH; test: ELISA, CRH (NT biotin)
Method: as §1
These potential PTMs were mutated individually either in HCDR2 alone, in LCDR1 alone, or in various combinations of mutations, as detailed in Table 3. […] Most ΔPTM variants retained functional activities.

B1: PR302309-11 (antibody, human IgG1, kappa, V domains shown)
VH: QIQLVQSGSELKKPGASVKVSCKASGYTFTNYGMNWVRQAPGQGLEWMGWINTYTGEPIYTDDFKGRFVFSLDTSVSTAYLQISSLKAEDTAVYYCSRSTMITTGGVFAYWGQGTLVTVSS
VL: DIVMTQTPLSSPVTLGQPASISCRSSQTIVHSDGNTYLEWLQQRPGQPPRLLIYKVSNRFSGVPDRFSGSGAGTDFTLKISRVEAEDVGVYYCFQGSHVPWTFGGGTKVEIKR
hCRHR1-Luc 0.5 nM CRH IC50 [1]: 2.12 nM | binding result [2]: no binding (tested: 100 nM) | EC50 (read off the curve) [3]: ~0.4 nM | EC50 (read off the curve) [4]: ~0.03 nM | binding result [5]: no binding (tested: 100 nM) | EC50 [6]: 0.028 nM | EC50 (read off the curve) [7]: ~0.07 nM | binding result [8]: no binding (tested: 100 nM) | binding result [9]: no binding (tested: 100 nM) | EC50 (read off the curve) [10]: ~0.03 nM | binding result [11]: no binding (tested: 100 nM)

B2: PR301780 (antibody, human IgG1, kappa, V domains shown)
VH: QIQLVQSGPELKKPGETVKISCKASGYTFTNFGLNWVKQAPGKGLKWMGWINTYTGEPTYTDDFKGRFAFSLETSASTAYLQINNLKKEDTATYFCARGTYRDDGAWFAYWGQGTLVTVSA
VL: DVLMTQTPLSLPVSLGDQASISCRSSQIIVHSNGNTYLEWYLQKPGQSPKLLIYKVSNRFSGVPDRFSGSGSGTDFTLKISRVEAEDLGVYHCFQGSHVPWTFGGGTKLEIKR
binding result [12]: binds

B3: PR301790 (antibody, human IgG1, kappa, V domains shown)
VH: EMKLEESGGGLVQPGGSMKLSCVASGFTFSNYWMNWVRQSPEKGLEWVAEIRLKSNNYATHYAESVKGRFTISRDDSKSSVYLQMNNLRAEDTGIYYCTIGTLVYWGQGTLVTVSA
VL: DIVLTQSPASLAVSLGQRATISCRASQSVSTSSYNYMHWYQQKPGQPPKLLIKFASNLESGVPARFSGSGSGTDFTLNIHPVEEEDTATFYCQHSWEIPYTFGGGTKLEIKR
binding result [12]: binds

B4: PR301803 (antibody, human IgG1, kappa, V domains shown)
VH: EVKLEESGGGLVQPGGSMKLSCVASGFTFNNYWMNWVRQSPEKGLEWVAEIRLKSNNYATHYAESLKGRFTISRDDSKSSVYLQMNNLRAEDTGIYYCTVGTLVYWGQGTLVTVSA
VL: DIVLTQSPASLVVSLGQRATISCRASQSVSTSTYNYMHWYQQKPGQPPKLLIKFASNLESGVPARFSGSGSGTDFTLNIHPVEEEDTATFYCQHSWEIPYTFGGGTKLEIKR
binding result [12]: binds

B5: PR302064 (antibody, human IgG1, kappa, V domains shown)
VH: EMQLVESGGGLVKPGGSLRLSCAASGFTFSNYWMNWVRQAPGKGLEWVAEIRLKSNNYATHYAESVKGRFTISRDDSKSTVYLQMNSLKTEDTAVYYCTVGTLVYWGQGTLVTVSS
VL: DIVLTQSPDSLAVSLGERATINCRASQSVSTSTYNYMHWFQQKPGQPPKLLIKFASNLESGVPDRFSGSGSGTDFTLTISSLQAEDTAVYYCQHSWEIPYTFGQGTKLEIKR
binding result [2]: no binding (tested: 100 nM) | EC50 (read off the curve) [3]: ~0.2 nM | EC50 (read off the curve) [4]: ~0.03 nM | binding result [5]: no binding (tested: 100 nM) | unlabelled nM value (Table 5 matrix; likely hCRHR1-Luc IC50 as in Tables 6-8) [13]: 0.531 nM | EC50 [6]: 0.022 nM | EC50 (read off the curve) [7]: ~0.1 nM | binding result [8]: no binding (tested: 100 nM) | binding result [9]: no binding (tested: 100 nM) | EC50 (read off the curve) [10]: ~0.03 nM | binding result [11]: no binding (tested: 100 nM)

B6: PR303394 (antibody, human IgG1, kappa, V domains shown)
VH: EVQLQQSGPELVKPGVSMKISCKASGYSFTDSTMNWVKQSHGKNLEWIGLIHPDNGGTIYNQKFKGKATLTVHKSSSTAYMELLSLTSEDSAVYYCANGFAYWGQGTLVTVSA
VL: DVVMTQTPLSLPVSLGDQASISCRSSQSLLHSNGNTYLHWYLQKPGQSPELLIYKVSNRFSGVPDRFSGSGSGTDFTLKISRVEAEDLGVYFCSQSTHVPLTFGAGTKLELKR
notes: also called analog of CTRND05
EC50 (read off the curve) [3]: ~0.02 nM | EC50 (read off the curve) [4]: ~0.03 nM | binding result [5]: no binding (tested: 100 nM) | EC50 (read off the curve) [7]: ~0.02 nM | % Inhibition [14]: 90% | binding result [8]: no binding (tested: 100 nM) | EC50 (read off the curve) [10]: ~0.03 nM

B7: PR005660 (antibody, human IgG1, kappa, V domains shown)
VH: EVQLVESGGVLVQPGGSLRLSCAASGFTFSSYWMTWVRQAPGKGLEWVANIKQEGSEKYYVDSVKGRFTISRDNAKNSLFLQMNSLRAEDTAVYYCARTLIFDYWGQGTLVTVSS
VL: DIVMTQSPLSLPVTPGEPASISCRSSQSLLHSTGYQSLEWYLQKPGQSPQLLIYLGSNRASGVPDRFSGSGSGTDFTLKISRVEAEDVGIYYCMQTLQTPITFGQGTRLEIKR
binding result [2]: no binding (tested: 100 nM) | binding result [15]: binds | EC50 (read off the curve) [4]: ~0.03 nM | binding result [5]: no binding (tested: 100 nM) | IC50 in the hCRHR1 reporter assay [16]: ~10 nM | EC50 [6]: 0.076 nM | % Inhibition [17]: 90% | binding result [8]: no binding (tested: 100 nM) | binding result [9]: no binding (tested: 100 nM) | EC50 (read off the curve) [18]: ~0.03 nM | EC50 (read off the curve) [10]: ~0.05 nM | binding result [11]: no binding (tested: 100 nM)
